US20250340857A1 (SEISMIC THERAPEUTIC, published 2025)
Positions count from the first letter of the chain named.

B1: FP141 (Fc fusion)
chain 1: DKTHTCPPCPAPEAAGAPSVFLFPPKPKDTLMISRTPEVTCVVVDVSHEDPEVKFNWYVDGVEVHNAKTKPREEQQNSTYRVVSVLTVLHQDWLNGKEYKCKVSNKALKAPIEKTISKAKGQPREPQVYTLPPSRDELTKNQVSLWCLVKGFYPSDIAVEWESNGQPENNYKTTPPVLDSDGSFFLYSKLTVDKSRWQQGNVFSCSVMHEALHNHYTQKSLSLSPGGGGSGGGGSGGGGSTALGRRKAEDRIKETLWADGVKIDEKDFEHIKSSHEDYFAVEYGKGSGYYDVNKKMDSEDTALCVGAVVTNMFHWWVDQNRENIEKFKKQDPENNGVMKFEGVKEATVDELNEFYRDNRDNYADQSRFFDLIKKHFGNKALNPEELFELYFNGFYYGSSHRYIEDNEPAQNNLFSKVLENNKLLNPERSYGIDGFSNNVINALKSHKVLGLVYTTPLRYRHIISMWGADIDQDGKVKAIYVTDSDDREITFNDNSKRRIGMIRYDVLVDDNGNIRFTGKGATHKEEGAIYAGLYSLSRGDEVWEDYFKKYPEVQENL
chain 2: DKTHTCPPCPAPEAAGAPSVFLFPPKPKDTLMISRTPEVTCVVVDVSHEDPEVKFNWYVDGVEVHNAKTKPREEQQNSTYRVVSVLTVLHQDWLNGKEYKCKVSNKALKAPIEKTISKAKGQPREPQVYTLPPSRDELTKNQVSLSCAVKGFYPSDIAVEWESNGQPENNYKTTPPVLDSDGSFFLVSKLTVDKSRWQQGNVFSCSVMHEALHNHYTQKSLSLSPG
B2: FP146 (Fc fusion)
chain: B1 chain 1 with W146T, K374S, K496A
B3: FP160 (Fc fusion)
chain: B1 chain 1 with W146T, I432R, D510K, E525N, E541K, E544K
B4: FP144 (Fc fusion)
chain: B1 chain 1 with L89D, Q91H, W146T, N214S
B5: FP147 (Fc fusion)
chain: B1 chain 1 with W146T, H400Q, R458E
B6: FP165 (Fc fusion)
chain 1: B1 chain 1 with M208L, N214S
chain 2: B1 chain 2 with M208L, N214S
B7: FP164 (Fc fusion)
chain: B1 chain 1 with W146T, H375D
B8: FP145 (Fc fusion)
chain: B1 chain 1 with W146T, T301S
B9: FP142 (Fc fusion)
chain 1: B1 chain 1 with S134C
chain 2: B1 chain 2 with Y129C
B10: FP149 (Fc fusion)
chain: B1 chain 1 with W146T, D510K
B11: FP143 (Fc fusion)
chain: B1 chain 1 with W146T, M208L, N214S
B12: FP163 (Fc fusion)
chain: B1 chain 1 with W146T, N511E
B13: FP150 (Fc fusion)
chain: B1 chain 1 with W146T, N411G
B14: FP159 (Fc fusion)
chain: B1 chain 1 with W146T, D510K, E525N
B15: FP158 (Fc fusion)
chain: B1 chain 1 with W146T, E541K, E544K
B16: FP134 (Fc fusion)
chain: DKTHTCPPCPAPEAAGAPSVFLFPPKPKDTLMISRTPEVTCVVVDVSHEDPEVKFNWYVDGVEVHNAKTKPREEQQNSTYRVVSVLTVLHQDWLNGKEYKCKVSNKALKAPIEKTISKAKGQPREPQVYTLPPSRDELTKNQVSLTCLVKGFYPSDIAVEWESNGQPENNYKTTPPVLDSDGSFFLYSKLTVDKSRWQQGNVFSCSVMHEALHNHYTQKSLSLSPGGGGSKGGGSKGGGSKTALGRRKAEDRIKETLWADGVKIDEKDFEHIKSSHEDYFAVEYGKGSGYYDVNKKMDSEDTALCVGAVVTNMFHWWVDQNRENIEKFKKQDPENNGVMKFEGVKEATVDELNEFYRDNRDNYADQSRFFDLIKKHFGNKALNPEELFELYFNGFYYGSSHRYIEDNEPAQNNLFSKVLENNKLLNPERSYGIDGFSNNVINALKSHKVLGLVYTTPLRYRHIISMWGADIDQDGKVKAIYVTDSDDREITFNDNSKRRIGMIRYDVLVDDNGNIRFTGKGATHKEEGAIYAGLYSLSRGDEVWEDYFKKYPEVQENL
B17: FP137 (Fc fusion)
chain: B16 chain with G228S, G229A, S230G, G233S, G234A, S235G, G238S, G239A, S240G
B18: FP140 (Fc fusion)
chain: DKTHTCPPCPAPEAAGAPSVFLFPPKPKDTLMISRTPEVTCVVVDVSHEDPEVKFNWYVDGVEVHNAKTKPREEQQNSTYRVVSVLTVLHQDWLNGKEYKCKVSNKALKAPIEKTISKAKGQPREPQVYTLPPSRDELTKNQVSLTCLVKGFYPSDIAVEWESNGQPENNYKTTPPVLDSDGSFFLYSKLTVDKSRWQQGNVFSCSVMHEALHNHYTQKSLSLSPGGSSAPGSSAPGSSAPTALGRRKAEDRIKETLWADGVKIDEKDFEHIKSSHEDYFAVEYGKGSGYYDVNKKMDSEDTALCVGAVVTNMFHWWVDQNRENIEKFKKQDPENNGVMKFEGVKEATVDELNEFYRDNRDNYADQSRFFDLIKKHFGNKALNPEELFELYFNGFYYGSSHRYIEDNEPAQNNLFSKVLENNKLLNPERSYGIDGFSNNVINALKSHKVLGLVYTTPLRYRHIISMWGADIDQDGKVKAIYVTDSDDREITFNDNSKRRIGMIRYDVLVDDNGNIRFTGKGATHKEEGAIYAGLYSLSRGDEVWEDYFKKYPEVQENL
B19: FP133 (Fc fusion)
chain: DKTHTCPPCPAPEAAGAPSVFLFPPKPKDTLMISRTPEVTCVVVDVSHEDPEVKFNWYVDGVEVHNAKTKPREEQQNSTYRVVSVLTVLHQDWLNGKEYKCKVSNKALKAPIEKTISKAKGQPREPQVYTLPPSRDELTKNQVSLTCLVKGFYPSDIAVEWESNGQPENNYKTTPPVLDSDGSFFLYSKLTVDKSRWQQGNVFSCSVMHEALHNHYTQKSLSLSPGGGGSKGGGSKTALGRRKAEDRIKETLWADGVKIDEKDFEHIKSSHEDYFAVEYGKGSGYYDVNKKMDSEDTALCVGAVVTNMFHWWVDQNRENIEKFKKQDPENNGVMKFEGVKEATVDELNEFYRDNRDNYADQSRFFDLIKKHFGNKALNPEELFELYFNGFYYGSSHRYIEDNEPAQNNLFSKVLENNKLLNPERSYGIDGFSNNVINALKSHKVLGLVYTTPLRYRHIISMWGADIDQDGKVKAIYVTDSDDREITFNDNSKRRIGMIRYDVLVDDNGNIRFTGKGATHKEEGAIYAGLYSLSRGDEVWEDYFKKYPEVQENL
B20: FP136 (Fc fusion)
chain: B19 chain with G228S, G229A, S230G, G233S, G234A, S235G
B21: FP139 (Fc fusion)
chain: B19 chain with G228S, G229S, S230A, K231P, G233S, G234S, S235A, K236P

target: Human IgE antibody (human); test: cell-based or functional assay

Binder | EC50 CE-SDS IgE [nM] | EC50 MSD IgE [nM]
B1 | 0.75 | 0.874
B2 | 1.58 | 
B3 | 4.04 | 
B4 | 0.66 | 
B5 | 3.1 | 
B6 | 29.3 | 0.822
B7 | 17.4 | 
B8 | 1.45 | 0.654
B9 | 3.8 | 
B10 | 0.19 | 0.708
B11 | 0.035 | 1.63
B12 | 30.5 | 
B13 | 1.15 | 2.2
B14 | 2.45 | 
B15 | 0.2 | 
B16 | 2.36 | 
B17 | 1.28 | 
B18 | 0.43 | 1.35
B19 | 1.15 | 
B20 | 0.61 | 
B21 | 0.11 | 
